{"source": "patent US8647613B2", "about": "“Drug carrier” (JCR Pharmaceuticals Co., Ltd., priority 2005, dated 2014)", "key": {"[1]": {"conditions": "cited from earlier work; for Isoelectric point: Table 2; for Isoelectric point (-): Table 5"}, "[2]": {"assay": "Hydrolysis of compound 28 in the liposome at low pH (thin layer chromatography)", "format": "physicochemical", "conditions": "PBS pH 4.5, 37° C., 24 hours, liposome 3/4/3/0.03", "method": "The prepared liposome (DOPC/chol/(28)/PEG-DPE=3/4/3/0.03, molar ratio) was dispersed in PBS of pH 4.5 at 37° C., and the dispersion was lyophilized 24 hours later. The dried mixed lipid powder was dissolved in chloroform and detected by thin layer chromatography (silica gel plate, chloroform/methanol (8/1) (volume/volume) detection: iodine)."}}}
{"molecule": "α-Lactalbumin: model protein, molecular weight 14 kDa", "values": [{"measurement": "Isoelectric point", "setting": "[1]", "value": "4.1-4.8"}, {"measurement": "Isoelectric point (-)", "setting": "[1]", "value": "4.1-4.8"}]}
{"molecule": "CCCCCCCCCCCCCCCCOC(=O)CCC(NC(=O)C(N)CCC(=O)O)C(=O)OCCCCCCCCCCCCCCCC", "note": "(centres unmarked) [compound 28]", "values": [{"measurement": "hydrolysis in the liposome at low pH", "setting": "[2]", "value": "hydrolyzed"}]}
{"molecule": "Ferritin", "values": [{"measurement": "Isoelectric point", "setting": "[1]", "value": "4.0-5.0"}, {"measurement": "Isoelectric point (-)", "setting": "[1]", "value": "4.0-5.0"}]}
{"molecule": "Thyrogrobulin: model protein, 670 kDa", "values": [{"measurement": "Isoelectric point", "setting": "[1]", "value": 4.5}, {"measurement": "Isoelectric point (-)", "setting": "[1]", "value": 4.5}]}
{"molecule": "Catalase (from bovie liver): model protein, 232 kDa (protein, UniProt P00432 2-527, looked up) Catalase: ADNRDPASDQMKHWKEQRAAQKPDVLTTGGGNPVGDKLNSLTVGPRGPLLVQDVVFTDEMAHFDRERIPERVVHAKGAGAFGYFEVTHDITRYSKAKVFEHIGKRTPIAVRFSTVAGESGSADTVRDPRGFAVKFYTEDGNWDLVGNNTPIFFIRDALLFPSFIHSQKRNPQTHLKDPDMVWDFWSLRPESLHQVSFLFSDRGIPDGHRHMNGYGSHTFKLVNANGEAVYCKFHYKTDQGIKNLSVEDAARLAHEDPDYGLRDLFNAIATGNYPSWTLYIQVMTFSEAEIFPFNPFDLTKVWPHGDYPLIPVGKLVLNRNPVNYFAEVEQLAFDPSNMPPGIEPSPDKMLQGRLFAYPDTHRHRLGPNYLQIPVNCPYRARVANYQRDGPMCMMDNQGGAPNYYPNSFSAPEHQPSALEHRTHFSGDVQRFNSANDDNVTQVRTFYLKVLNEEQRKRLCENIAGHLKDAQLFIQKKAVKNFSDVHPEYGSRIQALLDKYNEEKPKNAVHTYVQHGSHLSAREKANL", "values": [{"measurement": "Isoelectric point (-)", "setting": "[1]", "value": 5.5}]}
